From the supplement of paper PMC10567573

B1: CSTF3 (parent)
chain: YVPEKVKKAEKKLEENPYDLDAWS

Variants of: B1
Experiment: protein stability index of a GFP-peptide fusion (GPS, HEK-293T) (PSI 1-6); higher = more stable
Details: c terminus: a fixed tail appended
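Further: lentivirally expressed fusions sorted by FACS into six bins by GFP to DsRed ratio, PSI derived from sequencing read proportions per bin multiplied by bin number.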

Row | Variant | protein stability index
1 | FVPEKVKKAEKKLEENPYDLDAWS | 2.56
2 | TVPEKVKKAEKKLEENPYDLDAWS | 4.88
3 | DVPEKVKKAEKKLEENPYDLDAWS | 5.2
4 | AVPEKVKKAEKKLEENPYDLDAWS | 5.5
5 | YVPEAVKKAEKKLEENPYDLDAWS | 1.62
6 | YVPENVKKAEKKLEENPYDLDAWS | 3.5
7 | YVPEVVKKAEKKLEENPYDLDAWS | 2.32
8 | YVPEYVKKAEKKLEENPYDLDAWS | 3.04
9 | YVPEWVKKAEKKLEENPYDLDAWS | 2.45
10 | YVPEHVKKAEKKLEENPYDLDAWS | 2.28
11 | YVPELVKKAEKKLEENPYDLDAWS | 2.07
12 | YVPERVKKAEKKLEENPYDLDAWS | 2.72
13 | YVPEQVKKAEKKLEENPYDLDAWS | 2.73
14 | YVPEGVKKAEKKLEENPYDLDAWS | 2.25
15 | YVPEMVKKAEKKLEENPYDLDAWS | 2.04
16 | YVPECVKKAEKKLEENPYDLDAWS | 2.71
17 | YVPEEVKKAEKKLEENPYDLDAWS | 1.77
18 | YVPEPVKKAEKKLEENPYDLDAWS | 2.55
19 | YVPETVKKAEKKLEENPYDLDAWS | 2.93
20 | YVPEIVKKAEKKLEENPYDLDAWS | 2.95
21 | YVPEDVKKAEKKLEENPYDLDAWS | 1.9
22 | YVPEFVKKAEKKLEENPYDLDAWS | 2.19
23 | YVPESVKKAEKKLEENPYDLDAWS | 3.44
24 | YVPEKVKVAEKKLEENPYDLDAWS | 2.21

Row | Variant | protein stability index
25 | YVPEKVKAAEKKLEENPYDLDAWS | 3.58
26 | YVPEKVKHAEKKLEENPYDLDAWS | 2.27
27 | YVPEKVKRAEKKLEENPYDLDAWS | 2.54
28 | YVPEKVKFAEKKLEENPYDLDAWS | 3.78
29 | YVPEKVKNAEKKLEENPYDLDAWS | 2.92
30 | YVPEKVKEAEKKLEENPYDLDAWS | 2.9
31 | YVPEKVKWAEKKLEENPYDLDAWS | 3.37
32 | YVPEKVKTAEKKLEENPYDLDAWS | 2.37
33 | YVPEKVKCAEKKLEENPYDLDAWS | 2.34
34 | YVPEKVKYAEKKLEENPYDLDAWS | 1.72
35 | YVPEKVKDAEKKLEENPYDLDAWS | 2.48
36 | YVPEKVKIAEKKLEENPYDLDAWS | 3.65
37 | YVPEKVKMAEKKLEENPYDLDAWS | 2.97
38 | YVPEKVKQAEKKLEENPYDLDAWS | 3.12
39 | YVPEKVKSAEKKLEENPYDLDAWS | 3.26
40 | YAPEKVKKAEKKLEENPYDLDAWS | 1.92
41 | YLPEKVKKAEKKLEENPYDLDAWS | 4.51
42 | YIPEKVKKAEKKLEENPYDLDAWS | 2.33
43 | YDPEKVKKAEKKLEENPYDLDAWS | 4.2
44 | YYPEKVKKAEKKLEENPYDLDAWS | 4.37
45 | YKPEKVKKAEKKLEENPYDLDAWS | 4.25
46 | YTPEKVKKAEKKLEENPYDLDAWS | 3.18
47 | YQPEKVKKAEKKLEENPYDLDAWS | 4.07
48 | YEPEKVKKAEKKLEENPYDLDAWS | 4.84

Row | Variant | protein stability index
49 | YGPEKVKKAEKKLEENPYDLDAWS | 4.5
50 | YWPEKVKKAEKKLEENPYDLDAWS | 3.94
51 | YHPEKVKKAEKKLEENPYDLDAWS | 2.25
52 | YRPEKVKKAEKKLEENPYDLDAWS | 4.48
53 | YMPEKVKKAEKKLEENPYDLDAWS | 3.92
54 | YNPEKVKKAEKKLEENPYDLDAWS | 4.47
55 | YPPEKVKKAEKKLEENPYDLDAWS | 3.87
56 | YFPEKVKKAEKKLEENPYDLDAWS | 4.31
57 | YSPEKVKKAEKKLEENPYDLDAWS | 4.67
58 | YCPEKVKKAEKKLEENPYDLDAWS | 2.32
59 | YVPEKVKKDEKKLEENPYDLDAWS | 1.65
60 | YVPEKVKKTEKKLEENPYDLDAWS | 2.66
61 | YVPEKVKKPEKKLEENPYDLDAWS | 4.02
62 | YVPEKVKKFEKKLEENPYDLDAWS | 3.1
63 | YVPEKVKKYEKKLEENPYDLDAWS | 3.21
64 | YVPEKVKKLEKKLEENPYDLDAWS | 2.32
65 | YVPEKVKKEEKKLEENPYDLDAWS | 1.96
66 | YVPEKVKKQEKKLEENPYDLDAWS | 2.11
67 | YVPEKVKKMEKKLEENPYDLDAWS | 2.16
68 | YVPEKVKKKEKKLEENPYDLDAWS | 2.59
69 | YVPEKVKKIEKKLEENPYDLDAWS | 2.59
70 | YVPEKVKKSEKKLEENPYDLDAWS | 2.27
71 | YVPEKVKKVEKKLEENPYDLDAWS | 2.64
72 | YVPEKVKKCEKKLEENPYDLDAWS | 2.11

Row | Variant | protein stability index
73 | YVPEKVKKREKKLEENPYDLDAWS | 3.47
74 | YVPEKVKKWEKKLEENPYDLDAWS | 3.31
75 | YVPEKVKKHEKKLEENPYDLDAWS | 2.85
76 | YVPEKVKKGEKKLEENPYDLDAWS | 3.46
77 | YVPEKVKKAYKKLEENPYDLDAWS | 2.86
78 | YVPEKVKKAWKKLEENPYDLDAWS | 1.98
79 | YVPEKVKKAFKKLEENPYDLDAWS | 2.32
80 | YVPEKVKKAPKKLEENPYDLDAWS | 2
81 | YVPEKVKKAIKKLEENPYDLDAWS | 1.86
82 | YVPEKVKKAKKKLEENPYDLDAWS | 3.68
83 | YVPEKVKKAHKKLEENPYDLDAWS | 3.67
84 | YVPEKVKKAQKKLEENPYDLDAWS | 3.08
85 | YVPEKVKKACKKLEENPYDLDAWS | 3.32
86 | YVPEKVKKAAKKLEENPYDLDAWS | 1.93
87 | YVPEKVKKAGKKLEENPYDLDAWS | 2.97
88 | YVPEKVKKADKKLEENPYDLDAWS | 1.92
89 | YVPEKVKKARKKLEENPYDLDAWS | 2.63
90 | YVPEKVKKAVKKLEENPYDLDAWS | 2.18
91 | YVPEKVKKASKKLEENPYDLDAWS | 2.56
92 | YVPEKVKKATKKLEENPYDLDAWS | 1.74
93 | YVPEKVKKANKKLEENPYDLDAWS | 3.24
94 | YVPEKVKKAMKKLEENPYDLDAWS | 1.55
